This is an account of results in US20030158083A1, “Method of effecting angiogenesis by modulating the function of a novel endothelia phosphatase” (The Procter & Gamble Company, priority 2002, published 2003).

The target in experiment [1] is T1, human VEGFR2 intracellular domain (Homo sapiens, UniProt P35968).
T1 construct: expressed in transfected cells; host or cells: yeast strain MaV203 (pDBLeu-hVEGFR2)
Briefly: Yeast two-hybrid interaction with intracellular domain of VEGFR2. The format is binding. To be noted: growth on histidine-deficient and uracil-deficient media. The text has this: (§1) All two-hybrid plasmid constructs used the pDBLeu and pPC86 yeast expression vectors as a part of the ProQuest Two-Hybrid System (Life Technologies, Rockville, Md.). A cDNA encoding the intracellular domain of human VEGFR2 was generated by PCR from a human VEGFR2/pJFE14 construct, obtained from Regeneron Pharmaceuticals (Tarrytown, N.Y.), and subcloned into the yeast bait vector downstream of the GAL4 DNA-binding domain. A human umbilical vein endothelial cell (HUVEC) cDNA library (in pPC86) was co-transformed with pDBLeu-hVEGFR2 into the MaV203 strain of yeast. Proteins that interacted with the intracellular domain of human VEGFR2 were selected and tested for specificity according to the manufacturer's instructions.
(§2) In an ongoing effort to understand mechanisms by which the biological activity of VEGF is mediated through the VEGF receptor-2 (KDR/Flk-1), we used the entire cytoplasmic domain of KDR as bait to screen human umbilical vein endothelial cell (HUVEC) and human fetal brain cDNA libraries in the yeast two-hybrid system. The intracellular domain of human VEGFR2 (790-1357 SEQ ID NO 8) was constructed in the bait plasmid (pDBLeu) and the cDNA libraries were constructed in the prey plasmid (pPC86). Following transformation of yeast, positive clones were selected by growth on histidine-deficient media and for the expression of β-galactosidase activity (X-gal selection). […]

In experiment [2] the target is T2, human VEGFR2 intracellular domain (Homo sapiens, UniProt P35968, K868R).
T2 construct: expressed in transfected cells; host or cells: yeast strain MaV203 (pDBLeu-hVEGFR2)
T2 sequence (P35968 790-1356 K868R): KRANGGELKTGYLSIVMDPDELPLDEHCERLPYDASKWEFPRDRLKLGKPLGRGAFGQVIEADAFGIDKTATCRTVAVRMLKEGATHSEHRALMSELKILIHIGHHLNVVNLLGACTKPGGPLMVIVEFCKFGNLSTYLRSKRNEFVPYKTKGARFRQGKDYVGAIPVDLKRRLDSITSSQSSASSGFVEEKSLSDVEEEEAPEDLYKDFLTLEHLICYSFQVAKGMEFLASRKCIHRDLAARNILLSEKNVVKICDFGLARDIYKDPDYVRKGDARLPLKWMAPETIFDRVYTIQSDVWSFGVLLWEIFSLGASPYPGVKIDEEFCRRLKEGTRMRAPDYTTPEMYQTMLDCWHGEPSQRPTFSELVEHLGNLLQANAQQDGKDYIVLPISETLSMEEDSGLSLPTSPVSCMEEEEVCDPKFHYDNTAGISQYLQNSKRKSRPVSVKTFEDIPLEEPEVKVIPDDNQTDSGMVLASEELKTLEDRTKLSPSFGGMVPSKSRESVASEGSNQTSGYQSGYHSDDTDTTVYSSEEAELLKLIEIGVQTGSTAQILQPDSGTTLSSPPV
The experiment is described as above. The format is binding. The settings on record: ATP binding site mutated (K870R).
Excerpt: as §1, §2

A further experiment has as its target T3, VEGF receptor-2 (Homo sapiens, UniProt P35968).
T3 construct: Co-immunoprecipitation of full-length KAPh with full-length VEGF receptor-2; expressed in transfected cells
The experiment is described as follows: Co-immunoprecipitation with VEGF receptor-2 in HEK 293 cells. It counts as cell-based. The settings on record: HEK 293 VEGFR2 stable cells, 1 nM VEGF 5 min or untreated, anti-VEGFR2 IP. As for the experimental part:
Human umbilical vein endothelial cells (HUVEC) obtained from Clonetics (Walkersville, Md.) were cultured in endothelial growth medium (Clonetics) and were used up to passage 3. HEK 293 cells obtained from the American Type Culture Collection (Manasses, Va.) were cultured in cell growth medium (Dulbecco's modified Eagle's medium supplemented with 10% fetal bovine serum, 1% L-glutamine, 1% nonessential amino acids, and 1% antimycotics). For stable expression, hVEGFR2 was subcloned into pLNCX (Clontech, Palo Alto, Calif.), […] transfected into HEK 293 cells, and selected in the presence of Geneticin. The HEK 293 VEGFR2 clonal cell line was transiently transfected with either the SH2 domain or full-length KAPh in the mammalian expression vector pcDNA4/HisMax (Invitrogen, Carlsbad, Calif.). All constructs were transfected using LipofectAMINE PLUS (Life Technologies, Rockville, Md.) in serum-free DMEM according to the manufacturer's instructions.
HEK 293 cells that stably expressed the VEGF receptor-2 were transiently transfected to express the KAPh SH2 domain or full-length KAPh were treated with 1 nM VEGF or left untreated for 5 min. The cells were lysed in 1% triton lysis buffer with protease inhibitors. Insoluble debris was removed from the lysates by centrifugation at 14,000×g for 10 min at 4° C. […]

T1 sequence (P35968 790-1356): as the sequence (P35968 790-1356 K868R) above, with R79K counted along it
T3 sequence (P35968 20-1356): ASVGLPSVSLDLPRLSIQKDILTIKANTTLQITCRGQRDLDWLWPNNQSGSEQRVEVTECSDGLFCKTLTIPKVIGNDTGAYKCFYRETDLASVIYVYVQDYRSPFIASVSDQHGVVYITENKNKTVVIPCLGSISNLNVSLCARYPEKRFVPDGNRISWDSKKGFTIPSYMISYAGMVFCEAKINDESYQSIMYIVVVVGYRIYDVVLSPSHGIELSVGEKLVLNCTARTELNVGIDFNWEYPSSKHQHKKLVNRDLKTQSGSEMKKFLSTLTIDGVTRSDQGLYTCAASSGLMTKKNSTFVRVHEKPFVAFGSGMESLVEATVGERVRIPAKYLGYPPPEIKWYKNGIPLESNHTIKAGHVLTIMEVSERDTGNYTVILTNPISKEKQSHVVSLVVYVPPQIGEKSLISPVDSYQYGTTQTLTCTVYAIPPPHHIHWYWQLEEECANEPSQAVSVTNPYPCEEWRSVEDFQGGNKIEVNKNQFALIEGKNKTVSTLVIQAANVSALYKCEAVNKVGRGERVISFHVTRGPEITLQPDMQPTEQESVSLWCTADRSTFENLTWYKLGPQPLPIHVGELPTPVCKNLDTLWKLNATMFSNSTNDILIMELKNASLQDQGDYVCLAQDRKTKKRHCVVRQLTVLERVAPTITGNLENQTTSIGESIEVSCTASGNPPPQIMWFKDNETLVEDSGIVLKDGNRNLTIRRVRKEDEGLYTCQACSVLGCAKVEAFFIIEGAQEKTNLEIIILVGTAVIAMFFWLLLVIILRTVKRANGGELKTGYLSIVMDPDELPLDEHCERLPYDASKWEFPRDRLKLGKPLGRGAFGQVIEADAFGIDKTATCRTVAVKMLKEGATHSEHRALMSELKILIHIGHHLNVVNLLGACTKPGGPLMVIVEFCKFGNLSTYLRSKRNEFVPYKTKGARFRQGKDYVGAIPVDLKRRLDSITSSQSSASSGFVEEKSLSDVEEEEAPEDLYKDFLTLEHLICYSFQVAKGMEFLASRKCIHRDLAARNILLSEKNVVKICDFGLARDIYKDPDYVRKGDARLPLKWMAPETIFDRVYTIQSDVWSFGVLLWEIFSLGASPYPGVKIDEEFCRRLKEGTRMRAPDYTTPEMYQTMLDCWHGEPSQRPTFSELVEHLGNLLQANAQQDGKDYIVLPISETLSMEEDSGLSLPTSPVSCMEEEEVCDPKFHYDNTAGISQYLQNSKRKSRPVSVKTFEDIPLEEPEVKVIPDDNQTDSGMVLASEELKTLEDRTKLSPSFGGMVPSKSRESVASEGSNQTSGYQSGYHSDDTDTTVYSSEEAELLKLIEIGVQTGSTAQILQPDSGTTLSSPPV

B1: KAPh: novel human KDR Associated Phosphatase protein, full-length sequence SEQ ID NOS 1 and 2 (protein, listed as Homo sapiens)
chain: MKPRKAEPHSFREKVFRKKPPVCAVCKVTIDGTGVSCRVCKVATHRKCEAKVTSACQALPPVELRRNTAPVRRIEHLGSTKSLNHSKQRSTLPRSFSLDPLMERRWDLDLTYVTERILAAAFPARPDEQRHRGHLRELAHVLQSKHRDKYLLFNLSEKRHDLTRLNPKVQDFGWPELHAPPLDKLCSICKAMETWLSADPQHVVVLYCKGNKGKLGVIVSAYMHYSKISAGADQALATLTMRKFCEDKVATELQPSQRRYISYFSGLLSGSIRMNSSPLFLHYVLIPMLPAFEPGTGFQPFLKIYQSMQLVYTSGVYHIAGPGPQQLCISLEPALLLKGDVMVTCYHKGGRGTDRTLVFRVQFHTCTIHGPQLTFPKDQLDEAWTDERFPFQASVEFVFSSSPEKIKGSTPRNDPSVSVDYNTTEPAVRWDSYENFNQHHEDSVDGSLTHTRGPLDGSPYAQVQRPPRQTPPAPSPEPPPPPMLSVSSDSGHSSTLTTEPAAESPGRPPPTAAERQELDRLLGGCGVASGGRGAGRETAILDDEEQPTVGGGPHLGVYPGHRPGLSRHCSCRQGYREPCGVPNGGYYRPEGTLERRRLAYGGYEGSPQGYAEASMEKRRLCRSLSEGLYPYPPEMGKPATGDFGYRAPGYREVVILEDPGLPALYPCPACEEKLALPTAALYGLRLEREAGEGWASEAGKPLLHPVRPGHPLPLLLPACGHHHAPMPDYSCLKPPKAGEEGHEGCSYTMCPEGRYGHPGYPALVTYSYGGAVPSYCPAYGRVPHSCGSPGEGRGYPSPGAHSPRAGSISPGSPPYPQSRKLSYEIPTEEGGDRYPLPGHLASAGPLASAESLEPVSWREGPSGHSTLPRSPRDAPCSASSELSGPSTPLHTSSPVQGKESTRRQDTRSPTSAPTQRLSPGEALPPVSQAGTGKAPELPSGSGPEPLAPSPVSPTFPPSSPSDWPQERSPGGHSDGASPRSPVPTTLPGLRHAPWQGPRGPPDSPDGSPLTPVPSQMPWLVASPEPPQSSPTPAFPLAASYDTNGLSQPPLPEKRHLPGPGQQPGPWGPEQASSPARGISHHVTFAPLLSDNVPQTPEPPTQESQSNVKFVQDTSKFWYKPHLSRDQAIALLKDKDPGAFLIRDSHSFQGAYGLALKVATPPPSAQPWKGDPVEQLVRHFLIETGPKGVKIKGCPSEPYFGSLSALVSQHSISPISLPCCLRILSKDPLEETPEAPVPTNMSTAADLLRQGAACSVLYLTSVETESLTGPQAVARASSAALSCSPRPTPAVVHFKVSAQGITLTDNQRKLFFRRHYPVNSITFSSTDPQDRRWTNPDGTTSKIFGFVAKKPGSPWENVCHLFAELDPDQPAGAIVTFITKVLLGQRK
For the molecule B1, the “yeast two-hybrid interaction with wild-type KDR” value in experiment [1] was “robust protein-protein interaction”. Moreover, the “yeast two-hybrid interaction with KDR K870R mutant” value in experiment [2] was “essentially no significant interaction”. In the experiment with VEGF receptor-2, the “co-immunoprecipitation with VEGFR2” value is given as “detected in cells stimulated with VEGF”.
